Data from patent publication US20040253247A1 (Genentech, published 2004).

Assays:
rabbit albumin = rabbit albumin (rabbit, UniProt P49065 25-608); test: phage ELISA
Protocol: (§1) Phage ELISA—Phage clones (˜10¹¹ phage) were added to plates coated with rat, rabbit or human albumin. The microtiter plate was washed with wash buffer and bound phage were detected with HRP/Anti-M13 Conjugate. The amount of HRP bound was measured using ABTS/H₂O₂ substrate and monitoring the change at 405 nm.

human albumin = human albumin (human, UniProt P02768 25-609); test: phage ELISA
Protocol: as §1

Chain of rabbit albumin (P49065 25-608 limits assumed): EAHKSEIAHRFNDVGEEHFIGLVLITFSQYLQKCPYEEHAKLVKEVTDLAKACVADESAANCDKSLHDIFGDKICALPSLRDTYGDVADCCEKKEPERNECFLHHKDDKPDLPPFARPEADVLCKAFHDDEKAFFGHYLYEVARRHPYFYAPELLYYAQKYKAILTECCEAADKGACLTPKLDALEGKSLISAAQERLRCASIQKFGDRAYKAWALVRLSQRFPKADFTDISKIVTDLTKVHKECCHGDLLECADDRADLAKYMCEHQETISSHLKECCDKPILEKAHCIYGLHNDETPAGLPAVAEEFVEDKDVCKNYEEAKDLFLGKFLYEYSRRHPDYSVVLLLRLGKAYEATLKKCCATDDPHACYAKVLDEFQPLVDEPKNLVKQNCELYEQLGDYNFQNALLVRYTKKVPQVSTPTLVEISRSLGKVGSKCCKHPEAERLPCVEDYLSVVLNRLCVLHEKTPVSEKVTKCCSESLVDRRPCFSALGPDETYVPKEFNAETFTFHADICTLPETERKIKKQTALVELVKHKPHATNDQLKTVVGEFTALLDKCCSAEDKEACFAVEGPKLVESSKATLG

Row | Binder | binding result (rabbit albumin) | binding result (human albumin)
1 | DICLPVWGCLW (phage clone, Library RC) [RC-R10] | no binding | no binding
2 | QGYMVDFCLPRWGCLWGDAN (phage clone, Library RB) [RB-R12] | – | no binding
3 | DICLPVWGCLW (phage clone, Library RC) [RC-R3] | no binding | no binding
4 | QRQVVDFCLPQWGCLWGDGS (phage clone, Library RB) [RB-R14] | no binding | no binding
5 | DICLPVWGCLW (phage clone, Library RC) [RC-R12] | no binding | no binding
6 | DICLPVWGCLW (phage clone, Library RC) [RC-R1] | no binding | no binding
7 | ERQMEDFCLPQWGCLWGDGV (phage clone, Library RB) [RB-R1] | no binding | no binding
8 | FEDFCLPNWGCLWGS (phage clone, Library RBC) [RBC-R4] | no binding | no binding
9 | DICLPVWGCLW (phage clone, Library RC) [RC-R18] | no binding | no binding
10 | EWDVCLPHWGCLWDG (phage clone, Library RBC) [RBC-R16] | – | no binding
11 | QRQIMDFCLPHWGCLWGDGF (phage clone, Library RB) [RB-R10] | no binding | no binding
12 | MDDLCLPNWGCLWGD (phage clone, Library RBC) [RBC-R2] | no binding | no binding
13 | QMQMSDFCLPQWGCLWGDGY (phage clone, Library RB) [RB-R3] | no binding | no binding
14 | GRQVVDFCLPKWGCLWEEGL (phage clone, Library RB) [RB-R2] | no binding | no binding
15 | WDDICFRDWGCLWGS (phage clone, Library RBC) [RBC-R7] | no binding | no binding
16 | DICLPVWGCLW (phage clone, Library RC) [RC-R2] | no binding | no binding
17 | QSQLEDFCLPKWGCLWGDGF (phage clone, Library RB) [RB-R15] | – | no binding
18 | MDDICLHHWGCLWDE (phage clone, Library RBC) [RBC-R1] | no binding | no binding
19 | KSRMGDFCLPEWGCLWGDEL (phage clone, Library RB) [RB-R9] | no binding | no binding
20 | KMGRVDFCLPKWGCLWGDEL (phage clone, Library RB) [RB-R13] | – | no binding
21 | QGGMGDFCLPQWGCLWGEDL (phage clone, Library RB) [RB-R17] | – | no binding
22 | QRLMWEICLPLWGCLWGDGL (phage clone, Library RB) [RB-R5] | no binding | no binding
